B1: FBF1 (parent)
chain: FGDSPKAEKRQIGDQEGPRPARST

Variants of: B1
Assay: protein stability index of a GFP-peptide fusion (GPS, HEK-293T) (PSI 1-6); higher = more stable
Settings: c terminus: a fixed tail appended
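Further: lentivirally expressed fusions sorted by FACS into six bins by GFP to DsRed ratio, PSI derived from sequencing read proportions per bin multiplied by bin number.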

Protein stability index: each site, then its substitutions
A7: E 5.89, Q 5.1, S 5.09, Y 4, D 5.53, T 4.44, N 5.24, L 5.32, G 4.89, I 5.03, R 5.15, H 4.03, V 3.47, F 3.85, K 5.31
D14: A 4.87, W 4, P 5.09, T 5, Q 4.42, R 4.82, E 5.03, F 4.65, L 4.68, S 4.84, M 4.1, N 5.15, H 5, Y 4.54, I 4.38, V 4.72, K 4.5, C 4.7, G 4.71
G17: M 4.83, A 5.52, C 4.94, I 4.34, Y 4.68, K 5.02, P 5.54, V 4.42, S 5.46, R 5.1, Q 5.15, L 4.77, N 5.06, W 4.17, T 4.67, F 4.57, D 5.24, H 4.83, E 5.34
R10: N 5.42, Q 4.86, D 5.29, T 5.58, K 4.76, M 5.06, A 5.42, W 3.46, L 4.59, H 4.63, S 5.44, E 5.63, I 5.19, Y 4.97, C 5.02
G13: C 5.04, I 4.44, Y 4.86, W 2.74, Q 5.45, A 4.98, V 4.54, K 5.24, N 5.01, R 5.09, E 5.34, S 4.82, P 5.16, D 5.53, F 4.71, L 4.17, M 4.24, H 4.69, T 5.03
P5: A 4.85, R 4.75, N 5.53, Y 4.86, S 4.84, T 5.19, V 4.13, I 4.89, W 1.37, L 4.58, F 3.64, K 4.43, M 4.88, D 5.72, G 4.79, E 5.24, H 5, Q 4.55, C 4.63
F1: W 5.69, Y 5.42, A 5.87, M 5.85, E 5.52, L 5.36, R 5.67, K 5.79, N 5.54, P 5.58, G 5.72, I 5.41, H 5.52, C 4.95, S 5.51, D 5.81, T 5.76
I12: T 4.32, P 5.12, C 2.83, E 5.27, D 4.89, M 5.04, A 4.73, G 5.03, L 4.78, F 4.47, N 5.5, R 5.17, Q 5.5, V 5.4, Y 4.24, S 5.47
P18: F 4.85, H 4.77, G 5.33, R 4.78, Y 4.5, D 5.48, S 4.87, I 4.17, M 4.71, V 4.96, T 4.69, L 5.02, A 5.27, Q 4.72, E 5.54, K 5.21, C 5.22, N 4.15
Q15: R 4.28, M 5.03, D 5.65, H 3.53, S 5.72, C 4.23, W 4.25, F 4.32, I 4.65, Y 4.53

— the supplement of paper PMC10567573
